What was measured:
Aggrecan = experiment: BbHtrA proteolysis assay, aggrecan substrate; format: biochemical, bovine, human; settings: SDS-PAGE, silver stain, FIG. 4A
Protocol: For proteolysis assays described in Examples herein, purified protein substrates (200-600 nM) and proteases (100-150 nM) were diluted in assay buffer (50 mM HEPES, pH 7.4, 5 mM CaCl2) and incubated overnight at 37° C. Samples were boiled for 4 minutes to inactivate the proteases. Proteoglycans were deglycosylated by overnight incubation at 37° C. with 0.01 U chondroitinase ABC (Seikagaku). Reactions were stopped by the addition of SDS/PAGE sample buffer, boiled for 4 minutes, and electrophoresed on pre-cast Tris-glycine gels (BioRad). Reaction products were visualized by silver staining.
BbHtrA cleaved recombinant human aggrecan (G1-IGD-G2 domains) within the IGD (FIG. 4A). Cleavage of recombinant aggrecan generated three high molecular weight proteolytic fragments which migrated at ˜110 kd, ˜60 kd and ˜50 kd.
BbHtrA also degraded native, fully glycosylated aggrecan (FIG. 4B, lane 5). Again, this degradation required BbHtrA catalytic activity (FIG. 4B, lane 6). The BbHtrA-generated aggrecan fragments appear to be a doublet, unlike those generated by HtrA1.
Purified proteins were incubated with BbHtrA or BbHtrA^S226A as described herein. HtrA (also known as DegP) proteases belong to the family of serine proteases which contain a highly reactive serine residue in their active site. This serine (Ser210 in DegP) is part of the canonical His-Ser-Asp catalytic triad and mutation of the catalytic serine abolishes proteolytic activity (Skorko-Glonek et al., 1995). In BbHtrA, residues His119, Ser226 and Asp149 form the catalytic triad and mutation of serine 226 to alanine abolished proteolytic activity as expected (FIG. 5).
Reaction products were separated by SDS-PAGE and silver stained. Native collagen II and recombinant tenascin C were not degraded by BbHtrA indicating selectivity for proteoglycans, E-cadherin and fibronectin. FIG. 5 is an image of SDS-PAGE analysis showing that BbHtrA degrades aggrecan, neurocan, versican, brevican, biglycan, decorin, E-cadherin, and casein.

[1] = system: chondrocyte aggregate cultures; experiment: Chondrocyte cytokine induction assay (Proteome Profiler Cytokine Arrays); format: cell-based, human
Excerpt: Chondrocyte aggregate cultures are used which form an extensive extracellular matrix with components characteristic of articular cartilage including aggrecan and type II collagen as described in Welter, J. et al, BioTechniques, 2007, 42(6):732-737; and Solchaga, L. A. et al., Chondrogenic Differentiation of Bone Marrow-Derived Mesenchymal Stem Cells: Tips and Tricks, 2011, 698:253-278.
To form the chondrocyte aggregate cultures, lx10^6 human mesenchymal stem cells (passage one, Lonza, catalog #PT-2501) were plated in a T150 flask (Corning) and cultured in growth media: mesenchymal stem cell basal media (MSCBM, Lonza, #PT-3238), mesenchymal growth supplements (SingleQuots, Lonza, #PT-4105), and 5 ng/ml recombinant human […] (Shenandoah Biotechnology). When confluent, cells were trypsin-released (0.5% trypsin EDTA, Gibco), expanded to two T150 flasks and fed with growth media every three days. When confluent, cells were harvested, resuspended in fresh growth media containing 5% DMSO and aliquots of 1×10^6 cells were cryopreserved in liquid nitrogen.
Human mesenchymal stem cells were used to promote chondrogenesis and chondrocyte aggregate formation for use in these studies. Two vials of passage three cryopreserved cells were thawed, plated in growth media in two T150 flasks and then expanded to six T150 flasks as above. Cells were harvested (0.5% trypsin EDTA, Gibco), pooled, enumerated and induced to chondrogenic differentiation as follows. Cells were resuspended in defined chondrocyte differentiation media: high glucose DMEM (Gibco), 50 μg/ml ascorbic acid-2-phosphate (Sigma), 39.3 ng/ml dexamethasone (Sigma), […] L-proline (Sigma), ITS+Premix (BD Biosciences), 10 ng/ml transforming growth factor β-3 (Shenandoah Biotechnology) and 30 μg/ml gentamicin sulfate+15 ng/ml amphotericin-B (GA-1000, Lonza, #PT-4504E). High density aggregates were obtained by plating, on average, 3×10^5 cells per well in a conical bottom 96 well plate (Thermo Scientific), pelleting by centrifugation (5 minutes at 600 g), and incubation at 37° C. and 5% CO2. Pellets formed coherent spherical aggregates by day two of culture. After seven days, wide bore tips were used to transfer aggregates to V-bottom 96 well plates (Corning). Aggregates were maintained in differentiation media at 37° C. and 5% CO2 for 3-5 weeks and fed every two days until experimentation.
For chondrocyte cytokine induction assays, 24 hours prior to experimentation, dexamethasone containing media was removed, aggregates were rinsed with DPBS (Gibco) and dexamethasone-free differentiation media was added. For experimentation, aggregates were transferred to 24 well plates (24 aggregates per condition), spent media was removed and fresh warmed dexamethasone-free media containing samples was added. Aggregates were then incubated at 37° C. and 5% CO2 for two days.
Recombinant BbHtrA or BbHtrA^S226A was added to culture medium and incubated with chondrocyte aggregate cultures. BbHtrA and BbHtrA^S226A were purified using an E. coli system and was expected to contain endotoxin which would have a stimulatory effect on the chondrocytes. To control for endotoxin contamination (lipopolysaccharide, LPS), an endotoxin removal kit (Noragen) was used to remove the bulk of LPS from recombinant BbHtrAs. The relative toxicity of the amount remaining in the BbHtrA and BbHtrA^S226A samples was determined by a chromogenic Limulus Amoebocyte Lysate (LAL) method (Lonza, Walkersville, Md.). Prior to addition to aggregates, LPS (44 ng, 200 EU), BbHtrA^WT (20 μg, 27.9 EU LPS) and BbHtrA^S226A ([…], 1.99 EU LPS) were incubated in 1 mg/ml polymyxin B sulfate (Sigma) on ice for 30 min with occasional mixing. Warmed dexamethasone-free medium was then added to each test condition to a final volume of 1 ml. Control aggregates were maintained in untreated medium also containing polymyxin B sulfate. The final concentration for all test conditions was 60 μg/ml polymyxin B sulfate. […]

[2] = spent medium of chondrocyte aggregates after 48 hours, cytokine array, background subtracted

B1: BbHtrA^S226A (protein)
chain: MEKKFFSGFLLSFLALSIGFFIGMHYLASNRSNIVFAEEKDNTVRALQDSFREVSKKILPSSVEVHATGVIKQSFPIPFFFFDMPEFDSERKSNWAGSGVIIGRDSQKKSLFYVVTNSHVVDKATELEVVSYDKKKHKAKLIGKDEKKDIALISFESDDATIKVADLGDSDKLEIGDWVMAVGSPFQFSFTVTAGIVSGLQRSANPNLQSRNLFIQTDAAINRGNAGGPLVNIKGEVIGINAWIASNSGGNIGLGFAIPVNNIKSTVDFFLKGKKIESAWLGISFYPLKTRDSEVLKSLGVESNDVSAAIIASLYPGSPAVKSGLRAGDIIMKVNGVSMSVFQDVTSYISDFYAGEKVNVEILRGNVKKNIEIVLAVRPKDKELSSSKMLPGFVVYPLVEDIKAQLNLRNWIKGVVVDYIDKNLASNIKMKSGDVILSVNSKSVSNLREFYDALEVGKNTYKILRGNDSFKITF
modifications: Mutant Borrelia burdorferi HtrA S226A
Cleavage of recombinant human aggrecan (G1-IGD-G2 domains) within the IGD (Aggrecan): failed to generate these fragments
Cytokines released by chondrocytes in response ([1]; additional experiments, FIG. 10: BbHtrA^WT, BbHtrA^S226A, LPS, medium alone): IL-8 and CXCL1
GROα/CXCL1 pixel density, Mean [1, 2]: 0.647
I-309/CCL1 pixel density, Mean [1, 2]: 0.163
IL-6 pixel density, Mean [1, 2]: 0.309
IL-8 pixel density, Mean [1, 2]: 1.187
MCP-1/CCL2 pixel density, Mean [1, 2]: 0.050
RANTES/CCL5 pixel density, Mean [1, 2]: 0.265
sICAM-1/CD54 pixel density, Mean [1, 2]: 0.257

Reference: patent US9383360B2, “Compositions and methods relating to lyme disease” (The United States of America, as represented by the …, priority 2012, dated 2016)
